The target of assay [1] is T1, claudin18.2 protein (CLDN18.2) (Homo sapiens, UniProt P56856).
T1 construct: purchased CUSABIO TECHNOLOGY LLC CSB-MP005498HU (A5)
The experiment in a line: Indirect ELISA binding to CLDN18.2 VLP. As to conditions: CLDN18.2 (antigen protein) VLP, OD at 450 nm. Here is the method: (§1) OD value measurement through ELISA was performed by measuring the absorbance at 450 nm using a UV-Vis spectrometer.
To confirm the binding strength to an antigen, a CLDN18.2˜VLP (virus-like particle) expressing the claudin18.2 protein (CLDN18.2) was prepared. At this time, CLDN18.2˜VLP is CSB-MP005498HU (A5) from CUSABIO TECHNOLOGY LLC.
After a 96-well plate was coated with the CLDN18.2 VLP for ELISA and treated with each of antibody-A and ADC-A, indirect ELISA was performed to measure OD values.
The measured results were used for a regression analysis in GraphPad PRISM® 9.0 software to calculate EC50 and Bmax. The antigen binding affinity of antibody-A, ADC-A, antibody-B, and ADC-B were evaluated based on the calculated values.

Assay [2] concerns MIA PaCa-2˜CLDN18.2 cell line. The experiment in a line: Cell-based ELISA binding to MIA PaCa-2˜CLDN18.2 cells. Here is the method:
as §1
(§2) Four types of cell lines (MIA PaCa-2˜CLDN18.2, PATU8988S, parental MIA PaCa-2 (CLDN18.2-), and SNU601) were prepared. At this time, MIA PaCa-2˜CLDN18.2 and PATU8988S are CLDN18.2-positive pancreatic cancer cell lines. MIA PaCa-2 (CLDN18.2-) is a CLDN18.2-negative pancreatic cancer cell line. SNU601 is a CLDN18.2-positive gastric cancer cell line.
(§3) The prepared cell lines were cultured in DMEM containing 10% FBS and 1% penicillin/streptomycin (MIA PaCa-2˜CLDN18.2, MIA PaCa-2 (CLDN18.2-)), RPMI1640 containing 10% FBS and 1% penicillin/streptomycin (SNU601), and DMEM containing 5% FBS, 5% serum, 1% penicillin/streptomycin, and 2 mM L-glutamine (PATU8988S) in an incubator under the conditions of 37° C. and 5% CO2.
(§4) The prepared cell lines were plated on 96-well plates for culture, and then treated with each of antibody-A, ADC-A, antibody-B, and ADC-B. Thereafter, cell-based ELISA was performed, and OD values were measured.
(§5) The measured results were used for a regression analysis in GraphPad PRISM® 9.0 software to calculate EC50 and Bmax. The cell binding affinity of antibody-A, ADC-A, antibody-B, and ADC-B to each cell line was evaluated based on the calculated values.

Another assay concerns SNU601 cell line. The assay can be described thus: Cell-based ELISA binding to SNU601 cells. The settings on record: SNU601 (CLDN18.2+). Here is the method: as §1, §2, §3, §4, §5
On the technique in general: ELISA stands for enzyme-linked immunosorbent assay.

For the next assay, the system named is PATU8988S cell line. The experiment in a line: Cell-based ELISA binding to PATU8988S cells. The settings on record: PATU8988S (CLDN18.2+). Here is the method:
as §1, §2, §3, §4, §5

Assay [3] has as its system MIA PaCa-2 (CLDN18.2-) cell line. The assay can be described thus: Cell-based ELISA binding to MIA PaCa-2 (CLDN18.2-) cells. As to conditions: CLDN18.2 negative cell line. Here is the method:
as §1, §2, §3, §4, §5

The target in assay [4] is claudin18.2 protein (CLDN18.2) on CLDN18.2-positive cancer cell lines (MIA PaCa-2~CLDN18.2, SNU601, PATU8988S, NUGC-4) (UniProt P56856). The experiment in a line: cell-based ELISA (OD 450 nm), SNU601 (CLDN18.2+) cells. Further details: unit not given here.
The target is the same in assay [5]. The experiment in a line: cell-based ELISA (OD 450 nm), PATU8988S (CLDN18.2+) cells.
The target is the same in assay [6]. The experiment in a line: cell-based ELISA (OD 450 nm), MIA PaCa-2 (CLDN18.2+) cells.
The target of assay [7] is CLDN18.2~VLP (virus-like particle) expressing the claudin18.2 protein, CSB-MP005498HU (A5), CUSABIO (UniProt P56856). The assay can be described thus: indirect ELISA (OD 450 nm) on coated CLDN18.2 VLP, regression in GraphPad Prism.
For assay [8], the target named is claudin18.2 protein (CLDN18.2) on CLDN18.2-positive cancer cell lines (MIA PaCa-2~CLDN18.2, SNU601, PATU8988S, NUGC-4) (UniProt P56856). The experiment in a line: cell-based ELISA, PATU8988S (CLDN18.2+) cells; given as Kd, text calls it EC50.
For assay [9] the target is unchanged. The experiment in a line: cell-based or functional assay.
Assay [10] shares this target. The assay can be described thus: cell-based ELISA, MIA PaCa-2 (CLDN18.2+) cells; given as Kd, text calls it EC50.

Antibody-B (zolbetuximab antibody), sequence (VH): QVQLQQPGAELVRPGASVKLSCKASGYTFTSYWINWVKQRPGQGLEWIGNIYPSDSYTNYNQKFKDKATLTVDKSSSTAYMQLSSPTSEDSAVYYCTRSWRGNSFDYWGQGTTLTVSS
Antibody-B (zolbetuximab antibody), sequence (VL): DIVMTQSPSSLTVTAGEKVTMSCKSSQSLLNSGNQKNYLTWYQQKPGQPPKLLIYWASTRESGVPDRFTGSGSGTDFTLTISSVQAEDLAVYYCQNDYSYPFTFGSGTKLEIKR
ADC-B (antibody-B conjugated with MMAE), sequence (VH): as the sequence (VH) above
ADC-B (antibody-B conjugated with MMAE), sequence (VL): as the sequence (VL) above

“zolbetuximab [Antibody-B, reference compound]”: the Bmax was 2.134 in assay [1], 3.053 in assay [2], 1.701 in the assay with SNU601 cell line and 1.214 in the assay on PATU8988S cell line. Also, the “binding to parental MIA PaCa-2” value in [3] is on record as “none of the test substances bound”.
One may read the Kd as the equilibrium constant for the complex coming apart. For Antibody-B (zolbetuximab antibody), the Bmax in assay [4] is 1.7; in [5] it was 1.21; in assay [6], 3.05; in assay [7] it was 2.13. Further, the Kd in [8] was found to be 12.5 nM.
For the substance ADC-B (antibody-B conjugated with MMAE), the IC50 (nM), cell viability (CellTiter-Glo), MIA PaCa-2 (CLDN18.2+) in [9] came to 2.12 nM. The IC50 (nM), cell viability (CellTiter-Glo), NUGC4 (CLDN18.2+) in assay [9] came out at 20 nM. This substance also showed an IC50 (nM), cell viability (CellTiter-Glo), PATU8988S (CLDN18.2+) in [9] of 7.19 nM. Also, the IC50 (nM), cell viability (CellTiter-Glo), SNU601 (CLDN18.2+) in [9] came out at 10.4 nM. Further, the Bmax in assay [4] came to 2.8; in [5], 2.33; in assay [6] it was 3.33; in [7], 2.87. In addition, the Kd in assay [8] is 10.5 nM; in assay [10], 0.065 µg/mL.

For the origin of these results see patent publication US20260151501A1, “ANTIBODY-DRUG CONJUGATE COMPRISING ANTI-CLAUDIN-18.2 ANTIBODY, AND THERAPEUTIC USE THEREOF FOR CANCER” (ABTIS CO., LTD., priority 2022, published 2026).
